Patent publication US20100162418A1 (Kyowa Kirin, published 2010)
Values belong to the molecule of their own block, whether it stands above or below them.

T1: human plasma-derived complement C4 binding protein (C4BP; manufactured by BioMed) (human, UniProt P04003 49-597; P20851 18-252)
T1 construct: mature; Bought plasma protein; also called Human C4BP
T1 sequence (looked up) 1: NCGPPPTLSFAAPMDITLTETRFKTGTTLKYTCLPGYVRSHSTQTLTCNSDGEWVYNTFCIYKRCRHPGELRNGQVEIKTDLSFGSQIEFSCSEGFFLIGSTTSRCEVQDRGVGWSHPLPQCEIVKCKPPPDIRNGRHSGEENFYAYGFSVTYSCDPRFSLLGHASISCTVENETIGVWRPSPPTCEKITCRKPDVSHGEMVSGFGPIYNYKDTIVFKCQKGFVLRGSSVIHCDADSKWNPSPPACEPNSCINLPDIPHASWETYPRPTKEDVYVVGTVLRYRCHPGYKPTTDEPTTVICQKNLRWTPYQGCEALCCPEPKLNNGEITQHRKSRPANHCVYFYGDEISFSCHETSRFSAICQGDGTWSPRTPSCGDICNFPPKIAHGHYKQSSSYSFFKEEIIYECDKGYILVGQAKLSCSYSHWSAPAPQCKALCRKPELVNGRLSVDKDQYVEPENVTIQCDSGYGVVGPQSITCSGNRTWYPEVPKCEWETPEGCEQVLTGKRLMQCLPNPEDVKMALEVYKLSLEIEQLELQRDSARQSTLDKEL
T1 sequence (looked up) 2: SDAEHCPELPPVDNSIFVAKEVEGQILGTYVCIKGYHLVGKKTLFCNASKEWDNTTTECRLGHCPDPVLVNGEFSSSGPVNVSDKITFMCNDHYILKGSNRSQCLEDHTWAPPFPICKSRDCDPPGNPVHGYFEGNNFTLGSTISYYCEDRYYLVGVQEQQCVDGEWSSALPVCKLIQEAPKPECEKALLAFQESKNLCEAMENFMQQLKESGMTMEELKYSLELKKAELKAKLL

B1: MSPS, purified recombinant human Protein S obtained from FUT8 knockout CHO/DG44 cells (other)
chain: ANSLLEETKQGNLERECIEELCNKEEAREVFENDPETDYFYPKYLVCLRSFQTGLFTAARQSTNAYPDLRSCVNAIPDQCSPLPCNEDGYMSCKDGKASFTCTCKPGWQGEKCEFDINECKDPSNINGGCSQICDNTPGSYHCSCKNGFVMLSNKKDCKDVDECSLKPSICGTAVCKNIPGDFECECPEGYRYNLKSKSCEDIDECSENMCAQLCVNYPGGYTCYCDGKKGFKLAQDQKSCEVVSVCLPLNLDTKYELLYLAEQFAGVVLYLKFRLPEISRFSAEFDFRTYDSEGVILYAESIDHSAWLLIALRGGKIEVQLKNEHTSKITTGGDVINNGLWNMVSVEELEHSISIKIAKEAVMDINKPGPLFKPENGLLETKVYFAGFPRKVESELIKPINPRLDGCIRSWNLMKQGASGIKEIIQEKQNKHCLVTVEKGSYYPGSGIAQFHIDYNNVSSAEGWHVNVTLNIRPSTGTGVMLALVSGNNTVPFAVSLVDSTSEKSQDILLSVENTVIYRIQALSLCSDQQSHLEFRVNRNNLELSTPLKIETISHEDLQRQLAVLDKAMKAKVATYLGGLPDVPFSATPVNAFYNGCMEVNINGVQLDLDEAISKHNDIRAHSCPSVWKKTKNS
modifications: gamma-carboxylated glutamic acid (Gla) in the Gla domain; complex type N-glycoside-linked sugar chains without fucose (fucose not detected)
notes: It differs from KCPS only in glycosylation (no core fucose); also called fucose-free recombinant Protein S
B2: human plasma-derived Protein S (manufactured by Calbiochem) (other)
chain: B1 chain
modifications: gamma-carboxylated glutamic acid (Gla) in the N-terminal Gla domain; complex type N-glycoside-linked sugar chains (Asn458, Asn468, Asn489), partly with core alpha1,6-fucose (Fuc 0.26 per Man 3.00)
notes: Bought protein purified from human plasma; also called native Protein S; Human plasma Protein S
B3: KCPS, purified recombinant human Protein S obtained from CHO/DG44 cells (other)
chain: B1 chain
modifications: gamma-carboxylated glutamic acid (Gla) in the Gla domain; complex type N-glycoside-linked sugar chains with fucose (Fuc 0.69 per Man 3.00)
notes: It differs from MSPS only in glycosylation (highest core fucose ratio)
B4: Lens culinaris agglutinin (LCA) lectin (manufactured by Vector Laboratories) (other)
chain 1: TETTSFSITKFSPDQKNLIFQGDGYTTKGKLTLTKAVKSTVGRALYSTPIHIWDRDTGNVANFVTSFTFVIDAPSSYNVADEFTFFIAPVDTKPQTGGGYLGVFNSKEYDKTSQTVAVEFDTFYNAAWDPSNKERHIGIDVNSIKSVNTKSWNLQNGERANVVIAFNAATNVLTVTLTYP
chain 2: VTSYTLNEVVPLKDVVPEWVRIGFSATTGAEFAAHEVHSWSFHSELGGTSSS
notes: A lectin; also called lentil lectin
B5: recombinant human CD14 protein (manufactured by R&D systems) (receptor, UniProt P08571 20-352, looked up)
chain: TTPEPCELDDEDFRCVCNFSEPQPDWSEAFQCVSAVEVEIHAGGLNLEPFLKRVDADADPRQYADTVKALRVRRLTVGAAQVPAQLLVGALRVLAYSRLKELTLEDLKITGTMPPLPLEATGLALSSLRLRNVSWATGRSWLAELQQWLKPGLKVLSIAQAHSPAFSCEQVRAFPALTSLDLSDNPGLGERGLMAALCPHKFPAIQNLALRNTGMETPTGVCAALAAAGVQPHSLDLSHNSLRATVNPSAPRCMWSSALNSLNLSFAGLEQVPKGLPAKLRVLDLSCNRLNRAPQPDELPEVDNLTLDGNPFLVPGTALPHEGSMNSGVVPAC
notes: Bought

What was measured:
[1] = target: human plasma-derived Protein S (manufactured by Calbiochem) (human) (UniProt P07225); assay: SPR (Biacore T100), Protein S immobilised on CM5, C-17 as analyte
[2] = target: KCPS, purified recombinant human Protein S obtained from CHO/DG44 cells (human) (UniProt P07225); assay: SPR (Biacore T100), KCPS immobilised on CM5, C-17 as analyte
[3] = target: MSPS, purified recombinant human Protein S obtained from FUT8 knockout CHO/DG44 cells (human) (UniProt P07225); assay: SPR (Biacore T100), MSPS immobilised on CM5, C-17 as analyte
[4] = target: T1, human plasma-derived complement C4 …; assay: SPR (Biacore T100), MSPS immobilised on CM5, C4BP as analyte
Text: (§1) Using an amine coupling kit (manufactured by Biacore), human plasma-derived Protein S (manufactured by Calbiochem), and recombinant human Protein S prepared in Example 4, MSPS and KCPS were respectively immobilized on flow cells of a CM5 sensor chip (manufactured by Biacore). An immobilized amount of the ligand protein on the respective flow cells was set to the range of 1500 to 2000 RU. Then, an anti-human Protein S antibody C-17 (manufactured by Santa Cruz) (FIG. 7), or a human plasma-derived complement C4 binding protein (manufactured by BioMed) diluted to given concentrations (50000, 25000, 12500, 6250, 3125, and 1562 ng/mL) using HBS-EP+buffer (manufactured by Biacore), as an analyte, was allowed to run and bind to the ligand-immobilized flow cells at a temperature of 25° C., a flow rate of 5 μL/min, association time of 140 seconds, and dissociation time of 240 seconds. The anti-human Protein S antibody C-17 and the human plasma-derived complement C4 binding protein are known to bind to the sex hormone-binding globulin-like domain (SHBG domain) at the carboxyl terminal of Protein S. The chip was regenerated by a flow of an aqueous glycine solution (pH 1.5) (manufactured by Biacore) for 60 seconds. Dissociation constants calculated by analysis of the obtained data using Biacore T100 evaluation software ver 1.1 (manufactured by Biacore) are given in Table 2 below.

[5] = target: T2, recombinant human RAGE-Fc fusion protein (manufactured by R&D Systems) (human, UniProt Q15109 24-344); assay: SPR (Biacore T100), Protein S immobilised on CM5, RAGE-Fc as analyte
T2 construct: Bought fusion protein; also called recombinant soluble RAGE-human IgG1 Fc chimeric protein; not shown: Fc of human IgG1
T2 sequence (Q15109 24-344 limits assumed): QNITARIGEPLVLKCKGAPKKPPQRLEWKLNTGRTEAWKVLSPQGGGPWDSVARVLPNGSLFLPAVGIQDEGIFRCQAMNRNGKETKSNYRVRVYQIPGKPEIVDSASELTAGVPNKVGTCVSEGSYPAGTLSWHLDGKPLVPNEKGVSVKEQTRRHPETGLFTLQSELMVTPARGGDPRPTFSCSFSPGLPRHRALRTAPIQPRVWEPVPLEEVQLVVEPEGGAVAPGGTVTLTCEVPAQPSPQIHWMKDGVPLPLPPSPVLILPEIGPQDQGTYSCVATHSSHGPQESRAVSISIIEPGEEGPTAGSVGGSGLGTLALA

[6] = target: T1, human plasma-derived complement C4 …; assay: SPR (Biacore T100), Protein S immobilised on CM5, C4BP as analyte
Text: as §1

[7] = target: T1, human plasma-derived complement C4 …; assay: SPR (Biacore T100), KCPS immobilised on CM5, C4BP as analyte
Text: as §1

[8] = target: T3, human plasma-derived antithrombin III (manufactured by Calbiochem) (human, UniProt P01008 33-464, four asparagine-linked sugar chains without core alpha1,6-fucose); assay: SPR (Biacore T100), antithrombin III immobilised on CM5 chip, LCA as analyte
T3 construct: mature; Bought plasma protein; also called human plasma antithrombin III
T3 sequence (P01008 33-464): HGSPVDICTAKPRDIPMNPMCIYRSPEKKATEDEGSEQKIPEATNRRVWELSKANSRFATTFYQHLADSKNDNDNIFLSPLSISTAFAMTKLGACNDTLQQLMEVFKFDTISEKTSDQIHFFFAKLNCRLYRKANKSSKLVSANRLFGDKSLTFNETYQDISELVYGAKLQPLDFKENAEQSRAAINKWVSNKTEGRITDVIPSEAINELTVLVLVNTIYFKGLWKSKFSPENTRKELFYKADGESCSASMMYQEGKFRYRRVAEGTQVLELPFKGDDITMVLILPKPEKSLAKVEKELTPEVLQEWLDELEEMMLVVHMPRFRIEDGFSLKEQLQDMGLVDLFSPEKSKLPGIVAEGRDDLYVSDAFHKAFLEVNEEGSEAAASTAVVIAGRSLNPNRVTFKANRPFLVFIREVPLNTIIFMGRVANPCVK
Method: The abscissa represents time (seconds), and the ordinate represents a binding activity of LCA to a glycoprotein on a sensor chip of Biacore T100. From the top, each sensorgram represents a value obtained when LCA was allowed to run at concentrations of 50000, 25000, 12500, 6250, 3125 and 0 ng/mL. The top represents the binding between human plasma Protein S and LCA, and the bottom represents the binding between human plasma antithrombin III and LCA.
Next, in order to analyze the binding mode of fucose added to the sugar chain of the human plasma-derived Protein S, the binding between core α1,6-fucose-specific lectin, Lens culinaris agglutinin (LCA) lectin and Protein S was analyzed by surface plasmon resonance. Using an amine coupling kit (manufactured by Biacore), human plasma-derived Protein S (manufactured by Calbiochem) and human plasma-derived antithrombin III (manufactured by Calbiochem) were respectively immobilized on flow cells of a CM5 sensor chip (manufactured by Biacore). The human plasma-derived antithrombin III is a glycoprotein having four asparagine-linked sugar chains, but these sugar chains are known not to have core α1,6-fucose (WO2005/035563). An immobilized amount of the ligand protein on the respective flow cells was set to the range of 2000 to 3000 resonance units (hereinafter referred to as “RU”). […]

[9] = target: B1; assay: SPR (Biacore T100), Protein S immobilised on C1 chip, CD14 as analyte
Method: Using an amine coupling kit, human plasma-derived Protein S, and recombinant human Protein S prepared in Example 3, MSPS were respectively immobilized at 700 to 800 RU on flow cells of a Series S C1 sensor chip (manufactured by Biacore). Then, the experiment was carried out in the same manner as in Example 5, using a recombinant human CD14 protein (manufactured by R&D systems) diluted to given concentrations (25000, 12500, 6250, 3125, and 1562 ng/mL) using HBS-EP+buffer (manufactured by Biacore), as an analyte.

Kd [1]: 230 nM
Kd [2]: 220 nM
Kd [3]: 240 nM
Molecule: anti-human Protein S antibody C-17 (manufactured by Santa Cruz)

Molecule: B1
Kd [4]: 92 nM
fold affinity for RAGE against human plasma Protein S [5]: ~7 fold

Molecule: B2
Kd [6]: 101 nM

Molecule: B3
Kd [7]: 81 nM

Molecule: B4
binding result [8]: no binding (tested: 50000 ng/mL)

Molecule: B5
binding result [9]: binds
